# From CN117069840A (BEIJING BIOSYSTEMS BIOLOGICAL TECH CO LTD, dated 2023)
# T1: 人源IL-4蛋白 (human, UniProt P05112 25-153)
# T1 sequence (looked up): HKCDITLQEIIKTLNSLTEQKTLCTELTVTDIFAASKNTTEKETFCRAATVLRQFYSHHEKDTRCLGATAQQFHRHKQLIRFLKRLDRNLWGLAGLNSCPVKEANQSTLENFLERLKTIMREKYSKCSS
# T2: 人源IL-7蛋白 (human, UniProt P13232 26-177)
# T2 sequence (looked up): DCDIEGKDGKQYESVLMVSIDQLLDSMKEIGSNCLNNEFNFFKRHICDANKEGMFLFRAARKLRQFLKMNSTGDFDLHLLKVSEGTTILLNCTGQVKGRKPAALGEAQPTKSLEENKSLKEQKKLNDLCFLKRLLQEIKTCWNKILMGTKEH
# Assays:
# Test in all cases: indirect ELISA, antigen coated at 1 μg/mL, hybridoma supernatant, HRP-anti-mouse IgG
# 人源GM-CSF蛋白 = 人源GM-CSF蛋白 (human, UniProt P04141 18-144)
# Sequence of 人源GM-CSF蛋白 (P04141 18-144 limits assumed): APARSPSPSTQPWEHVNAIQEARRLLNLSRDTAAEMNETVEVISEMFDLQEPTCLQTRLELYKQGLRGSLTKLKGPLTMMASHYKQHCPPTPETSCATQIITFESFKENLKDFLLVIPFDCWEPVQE
# 人源TNF-alpha蛋白 = biological target: T3, 人源TNF-alpha蛋白 (human, UniProt P01375 77-233)
# T3 construct: also called TNF-α
# T3 sequence (P01375 77-233 limits assumed): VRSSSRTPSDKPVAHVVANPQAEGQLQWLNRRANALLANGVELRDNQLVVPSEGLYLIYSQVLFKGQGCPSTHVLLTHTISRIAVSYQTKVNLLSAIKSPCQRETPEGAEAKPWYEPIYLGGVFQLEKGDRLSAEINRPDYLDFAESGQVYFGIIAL
# 人源IL-2蛋白 = 人源IL-2蛋白 (human, UniProt P60568 21-153)
# Sequence of 人源IL-2蛋白 (P60568 21-153 limits assumed): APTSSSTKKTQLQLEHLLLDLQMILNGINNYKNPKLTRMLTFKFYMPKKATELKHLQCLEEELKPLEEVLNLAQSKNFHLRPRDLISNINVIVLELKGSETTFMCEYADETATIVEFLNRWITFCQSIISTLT
# 人源IL-4蛋白 = biological target: T1, 人源IL-4蛋白
# 人源IL-6蛋白 = 人源IL-6蛋白 (human, UniProt P05231 30-212)
# 人源IL-7蛋白 = biological target: T2, 人源IL-7蛋白
# 人源IL-10蛋白 = 人源IL-10蛋白 (human, UniProt P22301 19-178)
# Sequence of 人源IL-10蛋白 (P22301 19-178 limits assumed): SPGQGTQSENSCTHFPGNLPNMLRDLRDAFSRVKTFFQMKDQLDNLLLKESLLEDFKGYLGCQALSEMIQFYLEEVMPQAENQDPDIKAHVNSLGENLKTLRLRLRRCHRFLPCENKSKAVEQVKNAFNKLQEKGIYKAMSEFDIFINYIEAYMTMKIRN
# 人源IL-15蛋白 = 人源IL-15蛋白 (human, UniProt P40933 49-162)
# Sequence of 人源IL-15蛋白 (P40933 49-162 limits assumed): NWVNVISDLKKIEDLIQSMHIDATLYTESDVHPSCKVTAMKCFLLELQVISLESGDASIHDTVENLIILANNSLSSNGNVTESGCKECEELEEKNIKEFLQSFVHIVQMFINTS
binding result (人源GM-CSF蛋白),binding result (人源TNF-alpha蛋白),binding result (人源IL-2蛋白),binding result (人源IL-4蛋白),binding result (人源IL-6蛋白),binding result (人源IL-7蛋白),binding result (人源IL-10蛋白),binding result (人源IL-15蛋白),Binder
no binding,no binding,no binding,no binding,no binding,no binding,no binding,no binding,"抗体13A6G6 (antibody, V domains shown, Mouse monoclonal antibody from a hybridoma; also called Clone 13A6G6; 克隆号13A6G6) VH: EVKLEESGGGLVQPGGSTKLSCAASGFTFSDAWMNWVRQSPEKGLEWIAEIRTKTSNHAAYYAASVKGRFTISRDDSKSSVYLQMNSLRPEDTGIYYCTRFDYWGQGTTLTVSS VL: DVQITQSPSYLAASPGETITINCRASKNINKHLAWYHDKPGKTNKLLIYSGSTLQSGTPSRFSGSGSGTDFTLTISSLEPEDFAVYYCQQHNEYPYTFGGGTKLAIK"
no binding,no binding,no binding,no binding,no binding,no binding,no binding,no binding,"抗体3G6D7 (antibody, V domains shown, Mouse monoclonal antibody from a hybridoma; also called Clone 3G6D7; 克隆号3G6D7) VH: EIQLQQSGPELVKPGASVKVSCKASGYGFTSYNMNWVKQSHGKSLEWIGYIDPYNGGSGYNQKFKGKATLTVDKSSSTAYMHLISLTSDDSAVYYCARGDYDGGYYGMDYWGQGTSVTVSS VL: DILLTQSPAILSVSPGESVSFSCRASQSVGTSIHWFQQRTNGSPRLLIKYASESISGIPSRFSGSGSGTDFTLIINSVESEDIADYYCQQSNGWPFTFGSGTKLEIK"
